This note sets out measurements from publication PMC12167799, “The role of human Shu complex in ATP-dependent regulation of RAD51 filaments during homologous recombination–associated DNA damage response” (The Journal of Biological Chemistry, 2025).

Substrate in the data set: Nc1ncnc2c1ncn2[C@@H]1O[C@H](COP(=O)(O)OP(=O)(O)OP(=O)(O)O)[C@@H](O)[C@H]1O
Description: malachite green ATPase assay, Michaelis-Menten fit. In kind it is biochemical, Homo sapiens. The note with it: 1 μM protein, no DNA (basal activity), 37 °C. An excerpt: malachite green ATPase assay, Michaelis-Menten fit on hSWS1-SWSAP1 (human Shu complex)

B1: hSWS1-SWSAP1 (human Shu complex) (Homo sapiens) (protein)
chain: MPAAGPPLLLLGTPGSGKTALLFAAALEAAGEGQGPVLFLTRRPLQSMPRGTGTTLDPMRLQKIRFQYPPSTRELFRLLCSAHEAPGPAPSLLLLDGLEEYLAEDPEPQEAAYLIALLLDTAAHFSHRLGPGRDCGLMVALQTQEEAGSGDVLHLALLQRYFPAQCWLQPDAPGPGEHGLRACLEPGGLGPRTEWWVTFRSDGEMMIAPWPTQAGDPSSGKGSSSGGQP
notes: heterodimer co-expressed in High Five insect cells (baculovirus); SWSAP1 with TEV-cleavable N-terminal 6xHis tag (cleaved), SWS1 untagged; with Zinc finger SWIM domain-containing protein 7
For B1, the Km (in general, the substrate concentration at which the rate is half of its maximum) is 10.0 ± 0.2 mM; the Vmax (as a rule, the top rate of the reaction or transport when substrate is in excess) amounted to 0.75 µM/min; the kcat (as a rule, the number of substrate molecules converted per active site and unit of time at saturation) came to 0.0125 s⁻¹; the catalytic efficiency (kcat/Km) (commonly the turnover number divided by the Michaelis constant) was found to be 1.3 M⁻¹ s⁻¹.
